Data on one molecule can be found in patent US20140274766A1, “METHODS OF USING F-SPONDIN AS A BIOMARKER FOR CARTILAGE DEGENERATIVE CONDITIONS AND BONE DISEASES” (priority 2009, published 2014).

The test system of one assay is embryonic mouse tibia. The assay can be described thus: Embryonic mouse tibia organ culture ex vivo (growth, staining, histology). On the procedure:
FIGS. 20A, 20B and 20C. F-spondin regulates bone growth and morphology in mouse tibial organ cultures. Longitudinal growth and histological analysis of embryonic mouse tibia after 7 days of culture ex vivo. Tibia were treated with recombinant F-spondin FS (1 mg/ml) or an anti-F-spondin, TSR-domain specific (R1) antibody. (A) Representative images of whole tibia stained with alcian blue (proteoglycans) and alizarin red (mineral). (B) Tibial growth was measured after 7 days of organ culture and expressed as percent of original length at day 0. Average growth for control cultures has been set to 100% (C) H&E stained sections of corresponding limbs after 7 days treatment. Arrows indicate hypertrophic chondrocytes in the […] growth plate.
All animal experiments were conducted according to the guidelines of the Institutional Animal Care and Use Committee (IACUC) of New York University. […] After 12 hours, tibiae were placed in 24-well Falcon plates and initial longitudinal length was measured using a stereomicroscope. […] (purchased from R&D Systems, Minneapolis, Minn. (Cat No AF3135). Media was changed every 24 hours beginning on day one, and tibial length was measured again at the end of one week. The results were expressed as percentage changes in length relative to day one. […]

The subject of another assay is human chondrocytes. The assay can be described thus: PGE2 production by human chondrocytes (RIA), F-spondin supernatant and blocking antibodies. The class given is cell-based. As to conditions: supernatants from F-spondin transfected cells, 24 h, vs control vector supernatants. How it is done:
FIG. 11: Blocking of F-spondin function by antibody: Human chondrocytes were grown in monolayer culture. The cells were adapted to serum free medium conditions for 24 h before treating with either F-spondin transfected supernatant (150 uL), LM609 (αvβ3) or R1 (F-spondin blocking antibody) for 24 h and the culture supernatant was collected for PGE2 estimation by RIA. The data is representative of one of the three experiments. F-spondin induced production of PGE2 was inhibited by R1 (TSR 3-6 blocking antibody).
F-spondin consists of reelin, spondin and six TSR domains; these domains may activate various cellular functions by binding to different receptors. Previously, Terai et al (2001) have shown that F-spondin inhibits angiogenesis in endothelial cells by binding to αvβ3 (Terai Y, Abe M, Miyamoto K, Koike M, Yamasaki M, Ueda M, et al. Vascular smooth muscle cell growth-promoting factor/F-spondin inhibits angiogenesis via the blockade of integrin alphavbeta3 on vascular endothelial cells. J Cell Physiol 2001; 188(3):394-402). […] Accordingly, human chondrocytes were incubated with the supernatant from F-spondin transfected cell culture for 24 h and the levels of PGE2 were measured under various conditions (FIG. 11). […]

In assay [1] the test system is latent TGF-β1 in OA cartilage explants. The assay can be described thus: Activation of latent TGF-β1 in OA cartilage explant cultures (ELISA). The following applies: F-spondin 1 μg/ml, 24 h. The class given is cell-based, human. On the procedure:
FIG. 12: Activation of Latent TGF-β1 by exogenous addition of F-spondin in OA cartilage explant cultures: Human OA cartilage was grown as explant cultures in serum free Ham'F-12 medium. All the conditions were done in triplicate. To the cartilage explants recombinant human F-spondin (1 ug/ml) or IL-1 (1 ng/ml) were added and supernatants were collected after 24 h. Both active and total TGF-β1 was estimated. Addition of F-spondin increased the levels of active TGF-β1 observed in explants cultures without significant increase in total latent TGF-β1 secretion.
The effect of F-spondin on latent TGF-β1 activation in OA cartilage explant cultures was studied by ELISA (R&D systems). Unstimulated OA cartilage explants spontaneously released both latent TGF-β1 (˜11 ng/g cartilage) and active TGF-β1 (200 pg/g cartilage) in culture supernatants (FIG. 12).

B1: F-spondin: 110 kDa, secreted, heparin-binding extracellular matrix glycoprotein; used as recombinant protein (R&D systems) or transfected-cell supernatant (protein, UniProt Q9HCB6 29-807, looked up)
Spondin-1: FSDETLDKVPKSEGYCSRILRAQGTRREGYTEFSLRVEGDPDFYKPGTSYRVTLSAAPPSYFRGFTLIALRENREGDKEEDHAGTFQIIDEEETQFMSNCPVAVTESTPRRRTRIQVFWIAPPAGTGCVILKASIVQKRIIYFQDEGSLTKKLCEQDSTFDGVTDKPILDCCACGTAKYRLTFYGNWSEKTHPKDYPRRANHWSAIIGGSHSKNYVLWEYGGYASEGVKQVAELGSPVKMEEEIRQQSDEVLTVIKAKAQWPAWQPLNVRAAPSAEFSVDRTRHLMSFLTMMGPSPDWNVGLSAEDLCTKECGWVQKVVQDLIPWDAGTDSGVTYESPNKPTIPQEKIRPLTSLDHPQSPFYDPEGGSITQVARVVIERIARKGEQCNIVPDNVDDIVADLAPEEKDEDDTPETCIYSNWSPWSACSSSTCDKGKRMRQRMLKAQLDLSVPCPDTQDFQPCMGPGCSDEDGSTCTMSEWITWSPCSISCGMGMRSRERYVKQFPEDGSVCTLPTEETEKCTVNEECSPSSCLMTEWGEWDECSATCGMGMKKRHRMIKMNPADGSMCKAETSQAEKCMMPECHTIPCLLSPWSEWSDCSVTCGKGMRTRQRMLKSLAELGDCNEDLEQVEKCMLPECPIDCELTEWSQWSECNKSCGKGHVIRTRMIQMEPQFGGAPCPETVQRKKCRIRKCLRNPSIQKLRWREARESRRSEQLKEESEGEQFPGCRMRPWTAWSECTKLCGGGIQERYMTVKKRFKSSQFTSCKDKKEIRACNVHPC
As for B1, in the assay on embryonic mouse tibia (7 days culture, compared to untreated limbs), the alizarin red staining entry is reported as “slight increase”. Also, the “number of hypertrophic chondrocytes (H&E)” value in the assay with embryonic mouse tibia (growth plate cartilage adjacent to mineralized core) was “increased numbers”. The PGE2 production result in the assay on human chondrocytes is “significantly increased”. Besides, in assay [1], the “increase of active TGF-β1” value was found to be 225% and the “total latent TGF-β1 synthesis” value is on record as “without significant changes”. Moreover, the “active TGF-β1 in culture supernatants” value in assay [1] (unstimulated 200 pg/g cartilage) was determined as 550 pg/g cartilage.
